Source: patent US20240279288A1 (ANYANG INSTITUTE OF SINO COTTON INDUSTRY INNOVATION, published 2024)

Legend:
GhMYC2 = GhMYC2 (cotton); test: luciferase complementation in tobacco leaves (FIG. 5B)
Method: The constructed plasmids were then transformed into Agrobacterium GV3101 (pSoup-p19) (Shanghai Weidi Company, Cat. No.: AC1003), and placed successively on ice for 5 min, in liquid nitrogen for 5 min, in water bath at 37° C. for 5 min, and on ice for 5 min, and then LB liquid medium was added for cultivation at 28° C. and 220 rpm for 2-3 h, followed by plating onto LB solid plates containing corresponding antibiotics (kanamycin+rifampicin) for cultivation at 28° C. for 2-3 days. Positive monoclonal clones were picked for cultivation after colonies grown out. The corresponding NLUC and CLUC vectors then were mixed and injected into tobacco leaves (1 day in the dark/1 day in the light). Luciferase substrates were applied at the infected leaves before taking images and placed in a dark room for at least 6 min to quench fluorescence, followed by observation on the Nightowl-II LB983 instrument, using IndigoBasic software under the luciferase-5 min setting conditions.

uPAR-D1D2 = biological target: T1, uPAR-D1D2 (Homo sapiens (Human), UniProt Q03405 23-335, limits assumed); test: yeast two hybrid
T1 construct: It is tied to 'D3 domain deficient uPAR' by its name only; also called D3 domain deficient uPAR
T1 sequence (Q03405 other isoform, or with tags, fused parts or gaps limits assumed): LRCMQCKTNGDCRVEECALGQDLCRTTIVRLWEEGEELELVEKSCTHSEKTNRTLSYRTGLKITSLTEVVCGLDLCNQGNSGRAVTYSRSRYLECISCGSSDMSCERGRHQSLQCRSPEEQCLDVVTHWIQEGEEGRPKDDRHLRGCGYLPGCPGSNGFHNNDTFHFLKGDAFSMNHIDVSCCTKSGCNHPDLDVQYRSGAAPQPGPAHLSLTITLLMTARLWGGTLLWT

NMYC = biological target: T2, NMYC (human, UniProt P04198 1-464); test: yeast two hybrid
T2 construct: In pGADT7 (AD fusion) for yeast two hybrid
T2 sequence (looked up): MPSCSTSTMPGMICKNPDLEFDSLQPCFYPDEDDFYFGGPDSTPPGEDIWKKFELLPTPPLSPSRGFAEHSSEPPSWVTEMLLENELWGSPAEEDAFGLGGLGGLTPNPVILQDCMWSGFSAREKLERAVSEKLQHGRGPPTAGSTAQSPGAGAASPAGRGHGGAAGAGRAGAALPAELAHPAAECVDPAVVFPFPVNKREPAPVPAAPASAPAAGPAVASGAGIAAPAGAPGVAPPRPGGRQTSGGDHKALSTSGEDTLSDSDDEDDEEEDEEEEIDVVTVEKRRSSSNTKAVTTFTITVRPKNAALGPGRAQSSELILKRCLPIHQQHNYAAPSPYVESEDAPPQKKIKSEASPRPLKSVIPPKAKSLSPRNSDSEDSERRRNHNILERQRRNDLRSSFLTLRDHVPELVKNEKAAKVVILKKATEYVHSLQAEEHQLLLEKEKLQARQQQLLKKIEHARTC

GhHDA6 = biological target: T3, GhHDA6 (cotton); test: yeast two hybrid
T3 chain: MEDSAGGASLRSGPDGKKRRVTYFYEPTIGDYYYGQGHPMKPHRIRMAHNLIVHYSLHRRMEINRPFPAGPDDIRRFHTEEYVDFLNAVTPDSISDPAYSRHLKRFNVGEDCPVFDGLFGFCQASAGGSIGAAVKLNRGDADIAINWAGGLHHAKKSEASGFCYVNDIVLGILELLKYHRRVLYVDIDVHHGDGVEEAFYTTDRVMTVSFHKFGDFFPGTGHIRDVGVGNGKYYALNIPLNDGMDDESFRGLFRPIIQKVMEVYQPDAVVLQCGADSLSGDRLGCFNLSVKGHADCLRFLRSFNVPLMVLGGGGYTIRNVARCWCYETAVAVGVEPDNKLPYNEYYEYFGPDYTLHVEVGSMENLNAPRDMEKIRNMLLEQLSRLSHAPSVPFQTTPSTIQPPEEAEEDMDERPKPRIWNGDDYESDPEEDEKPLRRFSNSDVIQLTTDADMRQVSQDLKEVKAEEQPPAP

GhNINJA = biological target: T4, GhNINJA (cotton); test: yeast two hybrid
T4 chain: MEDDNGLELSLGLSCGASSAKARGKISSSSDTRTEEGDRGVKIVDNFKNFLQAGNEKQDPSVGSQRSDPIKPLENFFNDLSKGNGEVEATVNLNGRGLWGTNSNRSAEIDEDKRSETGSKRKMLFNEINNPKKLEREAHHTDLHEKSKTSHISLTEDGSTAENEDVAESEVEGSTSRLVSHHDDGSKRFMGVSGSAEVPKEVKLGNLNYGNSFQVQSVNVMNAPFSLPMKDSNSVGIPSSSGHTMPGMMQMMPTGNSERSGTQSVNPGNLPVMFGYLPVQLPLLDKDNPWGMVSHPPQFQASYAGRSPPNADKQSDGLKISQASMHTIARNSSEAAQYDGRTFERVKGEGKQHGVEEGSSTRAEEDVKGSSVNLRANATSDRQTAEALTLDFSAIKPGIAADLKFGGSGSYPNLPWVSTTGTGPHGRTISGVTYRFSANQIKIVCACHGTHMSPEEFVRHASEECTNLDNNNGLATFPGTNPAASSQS

GhTPL = biological target: T5, GhTPL (cotton); test: yeast two hybrid
T5 chain: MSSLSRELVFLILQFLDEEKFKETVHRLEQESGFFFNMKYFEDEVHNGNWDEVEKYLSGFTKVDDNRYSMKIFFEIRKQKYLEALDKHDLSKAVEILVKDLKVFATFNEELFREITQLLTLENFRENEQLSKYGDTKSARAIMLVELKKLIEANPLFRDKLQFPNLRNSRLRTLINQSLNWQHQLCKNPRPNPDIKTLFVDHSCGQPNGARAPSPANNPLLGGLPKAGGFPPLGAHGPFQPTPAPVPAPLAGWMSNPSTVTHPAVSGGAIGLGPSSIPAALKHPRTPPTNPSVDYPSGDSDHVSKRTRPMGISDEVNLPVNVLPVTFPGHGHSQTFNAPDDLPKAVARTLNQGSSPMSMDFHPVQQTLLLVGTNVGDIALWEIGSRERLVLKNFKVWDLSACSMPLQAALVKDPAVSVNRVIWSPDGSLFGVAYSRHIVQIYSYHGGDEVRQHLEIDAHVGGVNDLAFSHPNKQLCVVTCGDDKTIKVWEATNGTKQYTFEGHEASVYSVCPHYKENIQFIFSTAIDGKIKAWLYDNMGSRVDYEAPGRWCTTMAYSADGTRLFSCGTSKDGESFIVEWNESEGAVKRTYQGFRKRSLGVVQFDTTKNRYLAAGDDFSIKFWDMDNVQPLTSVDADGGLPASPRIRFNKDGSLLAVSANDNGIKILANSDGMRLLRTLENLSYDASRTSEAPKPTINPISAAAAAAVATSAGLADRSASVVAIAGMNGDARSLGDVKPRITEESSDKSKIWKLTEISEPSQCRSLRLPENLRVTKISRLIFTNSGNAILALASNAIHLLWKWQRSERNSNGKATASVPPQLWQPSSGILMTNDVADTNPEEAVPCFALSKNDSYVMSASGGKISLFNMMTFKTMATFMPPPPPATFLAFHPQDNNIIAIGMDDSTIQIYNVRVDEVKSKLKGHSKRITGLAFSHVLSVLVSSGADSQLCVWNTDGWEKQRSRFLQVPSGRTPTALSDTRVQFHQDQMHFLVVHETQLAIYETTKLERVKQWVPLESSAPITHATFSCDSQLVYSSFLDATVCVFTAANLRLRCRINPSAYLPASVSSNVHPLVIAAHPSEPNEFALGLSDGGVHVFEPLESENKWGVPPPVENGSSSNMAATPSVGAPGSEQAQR

c-Myc = biological target: T6, c-Myc (human, UniProt P01106 1-454, limits assumed); test: luciferase complementation in tobacco leaves (FIG. 6F)
T6 construct: In pGADT7 (AD fusion) for yeast two hybrid, pCAMBIA-NLuc for LUC, pUC-SPYCE for BiFC; also called proto-oncogene c-Myc; full length of c-Myc
T6 sequence (P01106 whole entry, the tested form may be a part): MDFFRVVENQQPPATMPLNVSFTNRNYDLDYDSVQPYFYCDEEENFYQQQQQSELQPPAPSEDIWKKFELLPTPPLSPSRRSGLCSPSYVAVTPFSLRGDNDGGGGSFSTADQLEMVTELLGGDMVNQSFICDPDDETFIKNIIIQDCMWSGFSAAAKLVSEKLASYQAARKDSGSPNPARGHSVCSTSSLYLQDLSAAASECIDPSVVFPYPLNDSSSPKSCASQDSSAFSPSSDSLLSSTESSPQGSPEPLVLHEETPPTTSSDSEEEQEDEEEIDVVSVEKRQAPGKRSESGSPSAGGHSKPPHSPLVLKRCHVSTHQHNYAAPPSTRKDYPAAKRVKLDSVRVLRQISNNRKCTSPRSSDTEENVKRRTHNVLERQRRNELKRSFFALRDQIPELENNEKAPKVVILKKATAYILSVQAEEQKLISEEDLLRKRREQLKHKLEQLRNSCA
Description: Using the method of LUC experiment, c-Myc (NCBI accession number: NM_002467.6) was subcloned to pCAMBIA NLuc vector (Chen, H., et al. “Firefly Luciferase Complementation Imaging Assay for Protein-Protein Interactions in Plants.” Plant Physiology 146.2(2008):368-376.) between the KpnI and SalI cleavage sites, and GhJAZ1 (SEQ ID No. 39) was subcloned to pCAMBIA-CLuc vector (Chen, H., et al. “Firefly Luciferase Complementation Imaging Assay for Protein-Protein Interactions in Plants.” Plant Physiology 146.2(2008):368-376.) between the KpnI and SalI cleavage sites. The constructed recombinant plasmids verified to be positive by sequencing were transformed into Agrobacterium GV3101 (pSoup-p19) (Shanghai Weidi biology technology co., Ltd, Cat. No.: AC1003), which were co-transfected into tobacco leaves. 2-3 days after injection, the infected leaves coated with the fluorescent substrate were placed in a dark chamber of the instrument for at least 6 min before taking images to quench fluorescence, followed by observation on the Nightowl-II LB983 instrument, using IndigoBasic software under the luciferase-5 min setting conditions. Cultivation was performed after co-infection. If there is interaction, LUC luciferase is expressed, and luminescence is detected after substrate application. As shown in F in FIG. 6, GhJAZ1 interacts with c-Myc.

c-Myc-150aa = biological target: T7, c-Myc-150aa (human, UniProt P01106 1-150); test: luciferase complementation (FIG. 13 E)
T7 construct: Also tested by LUC, for which the construct is not described; also called first 150 amino acids truncated c-Myc
T7 sequence (P01106 1-150 limits assumed): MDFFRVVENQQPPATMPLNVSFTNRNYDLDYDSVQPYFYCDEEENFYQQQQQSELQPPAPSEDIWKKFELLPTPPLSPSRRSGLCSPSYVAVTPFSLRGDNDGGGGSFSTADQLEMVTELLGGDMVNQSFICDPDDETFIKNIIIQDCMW

c-Myc-215aa = biological target: T8, c-Myc-215aa (human, UniProt P01106 1-215); test: luciferase complementation (FIG. 13 E)
T8 construct: Also tested by LUC, for which the construct is not described
T8 sequence (P01106 1-215 limits assumed): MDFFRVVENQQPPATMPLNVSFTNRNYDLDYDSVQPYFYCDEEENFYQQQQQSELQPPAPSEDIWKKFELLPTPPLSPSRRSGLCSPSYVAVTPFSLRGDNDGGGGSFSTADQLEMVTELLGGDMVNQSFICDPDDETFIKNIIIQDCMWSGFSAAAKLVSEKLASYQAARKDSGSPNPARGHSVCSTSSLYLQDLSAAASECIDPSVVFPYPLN

GhCOI1 = biological target: T9, GhCOI1 (cotton); test: yeast two hybrid, JA-Ile in the medium
T9 chain: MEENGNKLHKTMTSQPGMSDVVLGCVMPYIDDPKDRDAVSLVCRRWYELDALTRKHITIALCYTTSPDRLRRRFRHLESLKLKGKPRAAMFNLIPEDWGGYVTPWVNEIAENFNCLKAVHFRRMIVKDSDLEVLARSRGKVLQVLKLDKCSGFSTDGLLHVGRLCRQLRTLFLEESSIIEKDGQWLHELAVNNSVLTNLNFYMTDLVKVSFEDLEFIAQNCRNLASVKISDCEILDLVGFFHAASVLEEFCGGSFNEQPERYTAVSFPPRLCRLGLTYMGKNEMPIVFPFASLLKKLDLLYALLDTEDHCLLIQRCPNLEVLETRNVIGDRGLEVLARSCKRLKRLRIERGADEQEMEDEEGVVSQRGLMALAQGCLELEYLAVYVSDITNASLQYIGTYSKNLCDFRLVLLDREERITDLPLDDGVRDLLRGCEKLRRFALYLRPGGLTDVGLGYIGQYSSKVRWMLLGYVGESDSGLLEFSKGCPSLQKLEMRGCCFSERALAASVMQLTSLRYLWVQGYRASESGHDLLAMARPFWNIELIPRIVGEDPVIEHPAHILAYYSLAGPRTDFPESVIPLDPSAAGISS
Method: The study on Arabidopsis had shown that the inhibition of JAZ protein on JA signaling was mainly achieved by inhibiting the transcription factor function of MYC, which had been experimentally verified by us in cotton. Based on the phylogenetic tree of Arabidopsis and cotton JAZs, we screened 6 cotton JAZs (GhJAZ1, GhJAZ7, GhJAZ9, GhJAZ10, GhJAZ11 and GhJAZ31), which were analyzed with GhMYC2, GhNINJA, GhTPL, GhHDA6, and GhCOI1 for yeast two hybrid. The amino acid sequence of GhJAZ1 was set forth in SEQ ID No. 4, and the corresponding encoding gene sequence was set forth in SEQ ID No. 39; the amino acid sequence of GhJAZ7 was set forth in SEQ ID No. 7, and the corresponding encoding gene sequence was set forth in SEQ ID No. 42; the amino acid sequence of GhJAZ9 was set forth in SEQ ID No. 2, and the corresponding encoding gene sequence was set forth in SEQ ID No. 37; the amino acid sequence of GhJAZ10 was set forth in SEQ ID No. 3, and the corresponding encoding gene sequence was set forth in SEQ ID No. 38; the amino acid sequence of GhJAZ11 was set forth in SEQ ID No. 5, and the corresponding encoding gene sequence was set forth in SEQ ID No. 40; and the amino acid sequence of GhJAZ31 was set forth in SEQ ID No. 9, and the corresponding encoding gene sequence was set forth in SEQ ID No. 44. […]

GhMYC2 (cotton), sequence (chain, as listed by the source limits assumed): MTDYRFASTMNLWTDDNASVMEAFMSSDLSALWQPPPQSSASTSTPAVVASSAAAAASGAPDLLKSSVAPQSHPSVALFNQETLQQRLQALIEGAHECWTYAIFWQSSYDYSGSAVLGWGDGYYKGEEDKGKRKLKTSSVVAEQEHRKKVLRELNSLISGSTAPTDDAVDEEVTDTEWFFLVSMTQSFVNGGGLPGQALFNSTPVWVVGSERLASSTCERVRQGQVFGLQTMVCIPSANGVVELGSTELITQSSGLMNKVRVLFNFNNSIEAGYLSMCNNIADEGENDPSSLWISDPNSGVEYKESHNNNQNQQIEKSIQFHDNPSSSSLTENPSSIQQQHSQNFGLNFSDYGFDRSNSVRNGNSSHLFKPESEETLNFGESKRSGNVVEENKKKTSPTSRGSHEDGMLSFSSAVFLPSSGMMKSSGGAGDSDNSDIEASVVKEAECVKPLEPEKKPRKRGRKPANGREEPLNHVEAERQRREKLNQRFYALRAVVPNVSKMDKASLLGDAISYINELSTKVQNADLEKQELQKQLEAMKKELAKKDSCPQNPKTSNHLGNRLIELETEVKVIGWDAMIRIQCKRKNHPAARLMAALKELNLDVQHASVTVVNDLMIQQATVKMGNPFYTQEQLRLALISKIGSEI

B1: GhJAZ1 (other)
chain: MSSCSESTAMKPARSPEKPSFAQTCNLLSQYLKEKGSFGDLSLGMTCNVEANGTPVVPPPTMNLFPLNDKSDDVCGRNGGNPKNLTSMDLFPQQAGLASKDDSPNKLEPQTAPMTIFYGGQVIVFNDFPANKAKEIMLLASNSSSQSNNSFNPIPFTSSIARSPIESSIGVPPTSKPVHPAQRAVPGDLPIARRASLHRFLEKRKDRITAKAPYQINNSAAAPSLSGDNKSWLGLAAQSP
notes: In yeast two hybrid it was expressed from pGBKT7 (BD fusion), in the luciferase experiment from pCAMBIA-CLuc, in BiFC from pUC-SPYNE; also called cotton JAZ1
binding result (GhMYC2): binds
binding result (uPAR-D1D2): no binding
binding result (NMYC): binds
binding result (GhHDA6): binds
binding result (GhNINJA): binds
binding result (GhTPL): binds
binding result (c-Myc): binds
binding result (c-Myc-150aa): binds
binding result (c-Myc-215aa): binds
binding result (GhCOI1): binds
